From patent US20220064275A1 (SCHOLAR ROCK, published 2022) come the findings set out here.

Changes are numbered by the printed parent chain.

The chains are these.
B1: Ab16 (antibody, V domains shown)
VH: EVQLLESGGGLVQPGGSLRLSCAASGFTFSNYAMSWVRQAPGKGLEWVSAISGSGFTTYYADSVKGRFTISRDNSKNTLYLQMNSLRAEDTAVYYCARVSSGHWDFDYWGQGTLVTVSS
VL: DIQLTQSPSSLSASVGDRVTITCRASQSISSYLNWYQQKPGKAPKLLIYAASNLQSGVPSRFSGSGSGTDFTLTISSLQPEDFATYYCQQTYTVPLTFGGGTKVEIK
B2: Ab10 (antibody, V domains shown)
VH: B1 VH with S30R, A50S, F56G, T57A
VL: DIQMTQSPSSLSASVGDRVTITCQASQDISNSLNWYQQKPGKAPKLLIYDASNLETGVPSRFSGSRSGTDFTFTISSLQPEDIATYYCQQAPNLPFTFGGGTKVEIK
B3: Ab9 (antibody, V domains shown)
VH: B1 VH with E1Q, L5V, L11V, N31S, Y32F, S35T, F56A, T57A, Y60F
VL: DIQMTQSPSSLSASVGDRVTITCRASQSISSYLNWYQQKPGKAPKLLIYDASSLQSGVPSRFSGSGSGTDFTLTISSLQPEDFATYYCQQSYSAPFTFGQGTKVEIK
B4: Ab36 (antibody, V domains shown)
VH: B1 VH with S30R, A50S, F56G, T57A, F106L
VL: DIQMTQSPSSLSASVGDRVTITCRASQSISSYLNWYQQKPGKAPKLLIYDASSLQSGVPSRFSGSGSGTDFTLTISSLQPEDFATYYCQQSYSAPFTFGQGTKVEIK
B5: Ab7 (antibody, V domains shown)
VH: B1 VH with S30A, N31D, S35T, S54T, F56A, T57H
VL: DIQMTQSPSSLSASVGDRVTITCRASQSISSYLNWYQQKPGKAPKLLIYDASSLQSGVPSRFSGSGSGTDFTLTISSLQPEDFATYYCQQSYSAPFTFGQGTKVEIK
B6: Ab8 (antibody, V domains shown)
VH: B1 VH with E1Q, L5V, L11V, G16R, N31D, S35V
VL: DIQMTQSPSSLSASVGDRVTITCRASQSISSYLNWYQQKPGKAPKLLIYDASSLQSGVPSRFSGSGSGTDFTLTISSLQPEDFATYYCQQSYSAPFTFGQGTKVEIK
B7: Ab13 (antibody, V domains shown)
VH: B1 VH with S30A, N31D, S35T, G53S, S54F, G55A, F56S, T57A, T58I
VL: B1 VL with L4M, N53S, T91V, T93D, V94P
B8: Ab17 (antibody, V domains shown)
VH: B1 VH with L11V, N31S, Y32F, S35T, F56A, T57A, Y60F
VL: B1 VL
B9: Ab15 (antibody, V domains shown)
VH: B1 VH with L5V, L11V, G16R, N31D, S35V
VL: B1 VL
B10: Ab18 (antibody, V domains shown)
VH: B1 VH with E1Q, L5V, L11V, G16R, N31D, S35V, F56A, T57A, Y60F, R98T
VL: B1 VL
B11: Ab14 (antibody, V domains shown)
VH: B1 VH with N31A, S35T, S54T, F56G, T57S
VL: B1 VL with L4M, N53S, T91V, T93D, V94P
B12: Ab21 (antibody, V domains shown)
VH: EVQLVESGGGLVQPGGSLRLSCAASGFTFSSFSMDWVRQAPGKGLEWVSYISPDASTIYYADSVKGRFTISRDNAKNSLYLQMNSLRAEDTAVYYCARGVLDYGDMLDPWGQGTLVTVSS
VL: DIQMTQSPSSLSASVGDRVTITCQASQDITNYLNWYQQKPGKAPKLLIYDASNLETGVPSRFSGSGSGTDFTFTISSLQPEDIATYYCQQADNHPPWTFGGGTKVEIK
B13: Ab27 (antibody, V domains shown)
VH: B12 VH with S31F, F32Y, S33A, D35N
VL: B12 VL
B14: Ab28 (antibody, V domains shown)
VH: B12 VH with A97V
VL: B12 VL
B15: Ab1 (antibody, V domains shown)
VH: B1 VH with S30R, A50S, F56G, T57A
VL: DIQLTQSPSSLSASVGDRVTITCQASQDISNFLNWYQQKPGKAPKLLIYDASNLETGVPSRFSGSGSGTDFTFTISSLQPEDIATYYCQQVFNPPLTFGGGTKVEIK
B16: Ab5 (antibody, V domains shown)
VH: B12 VH
VL: B12 VL

hLTBP1-proTGFβ1 complex made by transfected cells (cell-based potency assay), sequence (Q14766 347-1721, chain 1 of 2): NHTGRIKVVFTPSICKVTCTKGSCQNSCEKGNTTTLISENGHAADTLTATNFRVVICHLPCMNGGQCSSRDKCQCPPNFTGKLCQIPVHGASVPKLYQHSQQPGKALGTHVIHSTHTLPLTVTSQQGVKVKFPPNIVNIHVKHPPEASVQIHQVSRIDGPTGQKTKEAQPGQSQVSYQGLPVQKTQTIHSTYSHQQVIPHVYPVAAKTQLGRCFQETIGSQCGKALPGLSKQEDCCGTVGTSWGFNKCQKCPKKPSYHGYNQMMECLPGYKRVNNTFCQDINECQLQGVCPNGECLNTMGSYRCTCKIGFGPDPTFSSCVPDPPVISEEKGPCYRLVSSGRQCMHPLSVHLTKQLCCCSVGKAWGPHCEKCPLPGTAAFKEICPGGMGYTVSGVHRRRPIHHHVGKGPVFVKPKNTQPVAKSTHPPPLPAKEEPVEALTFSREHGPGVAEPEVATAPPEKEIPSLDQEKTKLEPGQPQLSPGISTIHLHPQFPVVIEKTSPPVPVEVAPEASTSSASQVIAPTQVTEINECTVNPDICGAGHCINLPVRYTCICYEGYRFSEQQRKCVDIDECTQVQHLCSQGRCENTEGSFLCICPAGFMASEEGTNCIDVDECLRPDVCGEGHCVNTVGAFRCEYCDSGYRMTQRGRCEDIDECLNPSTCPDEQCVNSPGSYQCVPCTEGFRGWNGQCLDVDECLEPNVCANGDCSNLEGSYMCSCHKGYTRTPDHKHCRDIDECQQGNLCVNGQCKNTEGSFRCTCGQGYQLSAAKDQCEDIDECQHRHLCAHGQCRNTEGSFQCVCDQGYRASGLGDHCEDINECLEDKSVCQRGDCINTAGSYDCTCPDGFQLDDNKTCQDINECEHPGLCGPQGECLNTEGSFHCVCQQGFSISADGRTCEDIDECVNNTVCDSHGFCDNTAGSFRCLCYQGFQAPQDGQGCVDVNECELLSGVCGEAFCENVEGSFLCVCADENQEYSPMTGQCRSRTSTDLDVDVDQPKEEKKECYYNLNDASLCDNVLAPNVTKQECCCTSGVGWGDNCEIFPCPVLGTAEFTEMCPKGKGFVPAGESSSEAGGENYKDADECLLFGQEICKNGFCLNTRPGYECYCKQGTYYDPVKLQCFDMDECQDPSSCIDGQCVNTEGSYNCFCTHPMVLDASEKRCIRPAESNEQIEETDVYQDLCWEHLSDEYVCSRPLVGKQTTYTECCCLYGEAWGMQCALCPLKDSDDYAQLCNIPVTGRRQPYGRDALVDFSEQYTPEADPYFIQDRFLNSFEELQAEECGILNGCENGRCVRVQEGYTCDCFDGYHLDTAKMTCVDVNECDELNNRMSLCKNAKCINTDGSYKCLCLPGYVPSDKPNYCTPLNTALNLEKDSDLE
hLTBP1-proTGFβ1 complex made by transfected cells (cell-based potency assay), sequence (P01137 30-390, chain 2 of 2): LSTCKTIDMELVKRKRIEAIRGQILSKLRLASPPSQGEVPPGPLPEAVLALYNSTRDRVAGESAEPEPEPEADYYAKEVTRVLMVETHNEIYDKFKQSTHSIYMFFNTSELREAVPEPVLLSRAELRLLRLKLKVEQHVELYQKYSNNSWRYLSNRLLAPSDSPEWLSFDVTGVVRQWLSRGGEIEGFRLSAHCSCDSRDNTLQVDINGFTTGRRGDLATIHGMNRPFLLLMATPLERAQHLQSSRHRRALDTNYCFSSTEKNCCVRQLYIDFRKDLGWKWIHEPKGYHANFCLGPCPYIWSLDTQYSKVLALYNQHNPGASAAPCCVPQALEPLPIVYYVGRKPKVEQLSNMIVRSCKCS

One test has as its target T1, human LTBP1-proTGFβ1 complex (human, UniProt Q14766 873-1507).
T1 construct: range 873-1507; biotinylated in Octet and MSD-SET; also called hLTBP1-proTGFβ1; hLTBP1
Kind of test: BLI (Octet). In general terms: BLI is a label-free optical method that tracks binding on a fibre tip over time.
Consider B1, for which the Kd turned out to be 0.181 nM.
Molecule B2 displayed a Kd of 0.262 nM.
Same read-out and setting: the same measure for B3: 0.348 nM.
The same measure, in the same setting: the same measure for B4: 0.353 nM.
For B5, the affinity, expressed as Kd, was 0.487 nM.
Molecule B6 returned a Kd of 0.329 nM.
Molecule B7 returned a Kd of 0.276 nM.
For the molecule B8, the Kd turned out to be 0.174 nM.
On the same count and under the same terms, to B9 belongs 0.15 nM.
B10 registered an equilibrium dissociation constant (Kd) of 0.312 nM.
On the same count and under the same terms, the same measure for B11: 0.336 nM.
As for B12, binding was put at a Kd of 0.225 nM.
For B13, binding was characterised by a dissociation constant (Kd) of 0.178 nM.
On the same count and under the same terms, the same measure for B14: 0.34 nM.

The target in the next test is T2, human LTBP3-proTGFβ1 complex (human, UniProt Q9NS15 866-1039).
T2 construct: range 866-1039; also called hLTBP3-proTGFβ1; hLTBP3
T2 sequence (Q9NS15 866-1039 limits assumed, chain 1 of 2): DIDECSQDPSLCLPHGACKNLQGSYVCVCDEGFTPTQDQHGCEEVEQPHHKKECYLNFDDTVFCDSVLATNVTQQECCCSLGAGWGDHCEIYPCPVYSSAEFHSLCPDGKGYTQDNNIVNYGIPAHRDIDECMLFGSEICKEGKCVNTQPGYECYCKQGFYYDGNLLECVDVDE
T2 sequence (chain, as listed by the source limits assumed, chain 2 of 2): as the sequence (P01137 30-390, chain 2 of 2) above
Kind of test: BLI (Octet).
In the case of B1, binding was put at a Kd of 0.132 nM.
Still for that read-out and setting: to B2 belongs 0.319 nM; to B3, 0.284 nM.
Still for that read-out and setting: to B4 belongs 0.415 nM; to B5, 0.417 nM.
On the same count and under the same terms, to B6 belongs 0.302 nM.
B7 returned a Kd of 0.249 nM.
On the same count and under the same terms, the same measure for B8: 0.208 nM; for B9: 0.168 nM; for B10: 0.257 nM.
Same read-out and setting: to B11 belongs 0.346 nM.
The same measure, in the same setting: to B12 belongs 0.268 nM.
As to B13, the Kd is 0.238 nM.
Still for that read-out and setting: to B14 belongs 0.316 nM.

The target of another test is T3, human GARP-proTGFβ1 complex (human, UniProt Q14392 20-627; P01137 30-390).
T3 construct: also called hGARP-proTGFβ1; hGARP
T3 sequence (Q14392 20-627, chain 1 of 2): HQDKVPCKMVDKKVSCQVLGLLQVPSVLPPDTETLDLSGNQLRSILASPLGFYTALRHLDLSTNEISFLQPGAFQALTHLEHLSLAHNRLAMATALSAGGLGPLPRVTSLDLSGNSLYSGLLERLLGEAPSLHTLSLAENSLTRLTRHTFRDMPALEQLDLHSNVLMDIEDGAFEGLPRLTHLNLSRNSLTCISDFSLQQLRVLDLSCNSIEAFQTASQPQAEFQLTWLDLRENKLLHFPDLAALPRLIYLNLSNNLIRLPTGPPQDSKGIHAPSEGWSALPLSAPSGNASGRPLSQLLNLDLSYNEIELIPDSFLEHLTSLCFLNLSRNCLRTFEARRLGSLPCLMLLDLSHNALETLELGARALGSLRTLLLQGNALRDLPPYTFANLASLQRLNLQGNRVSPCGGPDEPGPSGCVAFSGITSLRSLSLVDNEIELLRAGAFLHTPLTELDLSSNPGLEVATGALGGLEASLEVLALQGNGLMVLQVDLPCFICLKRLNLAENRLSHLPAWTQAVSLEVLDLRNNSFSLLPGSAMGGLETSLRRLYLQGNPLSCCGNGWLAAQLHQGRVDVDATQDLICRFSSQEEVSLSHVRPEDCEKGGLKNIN
T3 sequence (P01137 30-390, chain 2 of 2): as the sequence (P01137 30-390, chain 2 of 2) above
Kind of test: BLI (Octet).
Regarding B1, the affinity, expressed as Kd, was 4.16 nM.
Same read-out and setting: to B2 belongs 10.2 nM; to B3, 15.5 nM.
Still for that read-out and setting: to B4 belongs 12.8 nM; to B5, 18 nM.
Still for that read-out and setting: the same measure for B6: 15.4 nM; for B7: 10 nM.
B8 came in with a Kd of 8.62 nM.
Same read-out and setting: the same measure for B9: 7.01 nM.
The same measure, in the same setting: the same measure for B10: 11.5 nM.
In turn, B11 had a Kd of 10.5 nM.
Same read-out and setting: the same measure for B12: 0.833 nM; for B13: 0.424 nM; for B14: 0.797 nM.

Another test deals with T4, human LRRC33-proTGFβ1 complex (human, UniProt Q86YC3 19-650; P01137 30-390).
T4 construct: also called hLRRC33-proTGFβ1; hLRRC33
T4 sequence (Q86YC3 other isoform, or with tags, fused parts or gaps limits assumed, chain 1 of 2): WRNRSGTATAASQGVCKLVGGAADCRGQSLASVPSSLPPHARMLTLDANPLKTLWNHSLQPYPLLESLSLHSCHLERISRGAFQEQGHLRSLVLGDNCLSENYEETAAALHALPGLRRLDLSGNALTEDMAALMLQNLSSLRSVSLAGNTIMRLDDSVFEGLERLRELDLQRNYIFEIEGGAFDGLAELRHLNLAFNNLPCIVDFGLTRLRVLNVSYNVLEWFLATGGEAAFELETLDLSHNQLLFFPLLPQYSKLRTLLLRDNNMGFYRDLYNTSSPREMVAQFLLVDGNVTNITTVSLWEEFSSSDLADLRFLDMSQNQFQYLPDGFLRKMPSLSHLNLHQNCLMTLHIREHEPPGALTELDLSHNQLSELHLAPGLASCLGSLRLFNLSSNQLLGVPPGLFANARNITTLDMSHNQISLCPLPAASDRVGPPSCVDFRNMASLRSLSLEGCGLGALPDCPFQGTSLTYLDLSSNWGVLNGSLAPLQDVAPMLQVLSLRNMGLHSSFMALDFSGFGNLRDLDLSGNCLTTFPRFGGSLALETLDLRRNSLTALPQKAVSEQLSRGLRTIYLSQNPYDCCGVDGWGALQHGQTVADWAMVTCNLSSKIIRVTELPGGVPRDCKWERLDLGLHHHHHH
T4 sequence (P01137 30-390 limits assumed, chain 2 of 2): as the sequence (P01137 30-390, chain 2 of 2) above
Kind of test: BLI (Octet).
Consider B1, for which the Kd came to 0.631 nM.
On the same count and under the same terms, to B2 belongs 1.06 nM; to B3, 1.3 nM; to B4, 1.42 nM.
Still for that read-out and setting: the same measure for B5: 10.3 nM; for B6: 10 nM; for B7: 1.4 nM.
Same read-out and setting: the same measure for B8: 0.658 nM.
For B9, the affinity, expressed as Kd, was 0.702 nM.
Still for that read-out and setting: the same measure for B10: 1.02 nM; for B11: 1.34 nM; for B12: 0.455 nM.
Still for that read-out and setting: the same measure for B13: 0.299 nM.
B14 had a Kd of 0.409 nM.

A further test addresses hLTBP1-proTGFβ1 complex made by transfected cells (cell-based potency assay) (human, UniProt Q14766 347-1721; P01137 30-390). Kind of test: cell-based or functional assay.
Consider B15, for which the “IC50, reporter cell assay of TGFβ1 activation” value (from here on “IC50, reporter cell assay”) is 14.5 nM.
Still for that read-out and setting: to B16 belongs 1.29 nM; to B12, 1.61 nM.

For another test, the target named is hLTBP3-proTGFβ1 complex made by transfected cells (cell-based potency assay) (human, UniProt Q9NS15 44-1303; P01137 30-390). Kind of test: cell-based or functional assay.
Regarding B15, the “IC50, reporter cell assay” value was 2.71 nM.
As to B16, the “IC50, reporter cell assay” value was determined as 1 nM.
For B12, the “IC50, reporter cell assay” value worked out at 0.765 nM.

In another test the target is hGARP-proTGFβ1 complex on cells (human, UniProt Q14392 20-662; P01137 30-390). In words: cell-based or functional assay.
hGARP-proTGFβ1 complex on cells, sequence (Q14392 20-662 limits assumed, chain 1 of 2): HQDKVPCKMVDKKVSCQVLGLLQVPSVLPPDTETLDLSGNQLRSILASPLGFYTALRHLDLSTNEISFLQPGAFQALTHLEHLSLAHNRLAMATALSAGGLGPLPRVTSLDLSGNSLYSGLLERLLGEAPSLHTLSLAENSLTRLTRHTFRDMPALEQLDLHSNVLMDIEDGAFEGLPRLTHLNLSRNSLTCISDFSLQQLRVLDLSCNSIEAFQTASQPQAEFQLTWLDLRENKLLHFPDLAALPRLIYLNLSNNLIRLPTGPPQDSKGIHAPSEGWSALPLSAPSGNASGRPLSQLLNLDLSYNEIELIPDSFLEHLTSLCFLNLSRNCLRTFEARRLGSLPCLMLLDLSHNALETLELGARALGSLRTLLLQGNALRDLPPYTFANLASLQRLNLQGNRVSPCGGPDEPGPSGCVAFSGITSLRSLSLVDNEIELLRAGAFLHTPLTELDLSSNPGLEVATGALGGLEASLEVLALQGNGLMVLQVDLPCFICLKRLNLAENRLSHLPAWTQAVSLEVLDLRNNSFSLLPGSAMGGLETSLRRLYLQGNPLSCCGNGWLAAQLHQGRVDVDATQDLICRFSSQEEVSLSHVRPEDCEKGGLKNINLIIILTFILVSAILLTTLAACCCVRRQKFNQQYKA
hGARP-proTGFβ1 complex on cells, sequence (P01137 30-390 limits assumed, chain 2 of 2): as the sequence (P01137 30-390, chain 2 of 2) above
For the molecule B15, the “IC50, reporter cell assay” value was determined as 3.71 nM.
Still for that read-out and setting: the same measure for B16: 0.14 nM; for B12: 0.401 nM.

The target of the next test is hLRRC33-proTGFβ1 complex on cells (human, UniProt Q86YC3 19-692; P01137 30-390). In words: cell-based or functional assay.
In the case of B15, the “IC50, reporter cell assay” value worked out at 5.37 nM.
B16: the “IC50, reporter cell assay” value was 0.616 nM.
Take B12: the “IC50, reporter cell assay” value worked out at 0.596 nM.

For orientation: Kd means the constant that tells how readily two partners part at equilibrium.
